Results on 1 molecule are retold here after US20170009278A1 (NAVINCI DIAGNOSTICS, published 2017).

The target of the experiment is T1, β catenin (UniProt P35222 2-781).
T1 construct: Detected with antibody Sc7199 (Santa-Cruz)
T1 sequence (looked up): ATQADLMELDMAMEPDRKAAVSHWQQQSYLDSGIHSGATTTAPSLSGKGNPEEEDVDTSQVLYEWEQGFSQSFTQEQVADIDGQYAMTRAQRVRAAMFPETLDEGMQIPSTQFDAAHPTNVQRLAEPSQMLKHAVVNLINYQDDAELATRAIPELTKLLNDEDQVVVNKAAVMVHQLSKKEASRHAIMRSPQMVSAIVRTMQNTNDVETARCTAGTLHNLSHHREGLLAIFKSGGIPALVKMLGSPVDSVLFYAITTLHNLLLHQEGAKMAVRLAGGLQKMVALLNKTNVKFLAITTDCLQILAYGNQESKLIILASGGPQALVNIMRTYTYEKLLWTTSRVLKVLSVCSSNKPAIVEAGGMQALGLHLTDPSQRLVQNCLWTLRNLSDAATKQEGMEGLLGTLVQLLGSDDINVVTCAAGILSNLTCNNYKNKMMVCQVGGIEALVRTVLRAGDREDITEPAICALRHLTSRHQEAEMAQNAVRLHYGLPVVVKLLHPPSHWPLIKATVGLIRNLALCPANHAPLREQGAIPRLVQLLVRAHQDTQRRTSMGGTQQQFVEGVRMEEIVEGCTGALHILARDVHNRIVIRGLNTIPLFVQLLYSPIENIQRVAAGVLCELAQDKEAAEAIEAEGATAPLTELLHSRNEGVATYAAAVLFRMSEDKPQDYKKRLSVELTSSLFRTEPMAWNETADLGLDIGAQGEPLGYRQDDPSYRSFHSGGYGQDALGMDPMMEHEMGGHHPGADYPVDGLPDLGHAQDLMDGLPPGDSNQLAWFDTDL
In words: in situ prox-HCR and in situ PLA on DLD1 cells and colon tissue.

Protocol: For in situ PLA experiments the DuoLink kit (Olink Bioscience) was used according to manufacturer recommendations. Briefly DLD1 cells were rehydrated and permeabilized as described for prox-HCR. […] Cells were washed with DuoLink Wash buffer A two time for 5 min and incubated with proximity probes (PLUS and MINUS, Olink Bioscience) in antibody diluent (Olink Bioscience) for 1 h at 37° C. After a new round of washing steps ligation mix was applied to the cells and incubated for 30 min at 37° C. Additional washing was followed by RCA and fluorescent detection of the rolling circle products. Cells were counterstained with Hoechst and mounted as described above.
Fresh frozen healthy colon tissue was fixed using 3.7% formaldehyde solution at RT for 15 min. Slides were washed with PBS twice and then blocked using Duolink blocking reagent for 60 min at 37° C. […] The next day the slides were washed with PBS 3×2 min and blocked again for 30 min. The slides were incubated with proximity-probes directed against mouse and rabbit IgG for 1 h at 37° C. in HCR buffer. After two more washes with HCR buffer the slides were incubated with activator oligonucleotides for 30 min at 37° C. Slides were washed again twice with HCR buffer and slides were incubated with 20 nM HCR hairpins in HCR buffer for 1 h at 37° C. […]

B1: E-cadherin (receptor, UniProt P12830 155-882, looked up)
chain: DWVIPPISCPENEKGPFPKNLVQIKSNKDKEGKVFYSITGQGADTPPVGVFIIERETGWLKVTEPLDRERIATYTLFSHAVSSNGNAVEDPMEILITVTDQNDNKPEFTQEVFKGSVMEGALPGTSVMEVTATDADDDVNTYNAAIAYTILSQDPELPDKNMFTINRNTGVISVVTTGLDRESFPTYTLVVQAADLQGEGLSTTATAVITVTDTNDNPPIFNPTTYKGQVPENEANVVITTLKVTDADAPNTPAWEAVYTILNDDGGQFVVTTNPVNNDGILKTAKGLDFEAKQQYILHVAVTNVVPFEVSLTTSTATVTVDVLDVNEAPIFVPPEKRVEVSEDFGVGQEITSYTAQEPDTFMEQKITYRIWRDTANWLEINPDTGAISTRAELDREDFEHVKNSTYTALIIATDNGSPVATGTGTLLLILSDVNDNAPIPEPRTIFFCERNPKPQVINIIDADLPPNTSPFTAELTHGASANWTIQYNDPTQESIILKPKMALEVGDYKINLKLMDNQNKDQVTTLEVSVCDCEGAAGVCRKAQPVEAGLQIPAILGILGGILALLILILLLLLFLRRRAVVKEPLLPPEDDTRDNVYYYDEEGGGEEDQDFDLSQLHRGLDARPEVTRNDVAPTLMSVPRYLPRPANPDEIGNFIDENLKAADTDPTAPPYDSLLVFDYEGSGSEAASLSSLNSSESDKDQDYDYLNEWGNRFKKLADMYGGGEDD
notes: whole, on cells; Detected with antibody 610182 (BD Biosciences)
On to B1, for which the binding result is listed as “binds”.
